Assay: soluble on expression in E. coli; label from the status in PepcDB or PDB records

Sequence | soluble on expression in E. coli
MAHHHHHHMECGYRNEGKFHQVVLNIKEKIEKHDLSKWKDIVKPEEGPKYDEYFERLLRGGTPEKDSHEEDSNEKHTHETHDLPAEQAEETPPEVCEPPGDEKNKTEFQLNKEFFDKISNKEKFYFLLNIKEMMETSWLLAQKRLEGIKLEEKSKPVNVQDLLNYSQKIADTTCAPPECDNINDKIMHQEYYPNYHFLNFVNVEEIHLSKLFQLQKYSTVCFPPIITIQEGKDNMLAIDITCSTPHATIYYRMNDDPNEQIYNTDDKPQIRKRKKVNVYAWSVKDGHIKSRVSCISKSYKVEEDDSFPLSDNLPNKEQGEQQTGSSKMGVEANAPGKPSQITNVFKNLGFLLSRKKEKTEEPSSNGESSSEG | not soluble
MAHHHHHHMVEEVTIGRDFVTVRRVDDDDTAAAVRQYAVRLGGNPTATPEETAERSAALQRKVMDAMEENCEQVKTLSGRNDPNESVDGGGENTEDNLGSQGGVALDSVDEAALRDLVRSTHWSELKLHVSALLTDHLYSGRAHIDADAPHPHPDTIPQDGDSEVVVVLKELISTTIRPQLQADGGDIRFVGLADSVMLVEMLGACRKCRSSKTTLRDMIERTTRHWVPEVQKVEEVER | not soluble
MEKRITTPLTDEVVKSLRAGDKVLITGYIYTARDAAHKRMVEAIQRGEKPPIDLKGQIIYYVGPTPPKPGQVIGSAGPTTAIRMDKYVEPLLKLGLKGMIGKGYRSPQVKELLKKYKAVYFAAVGGVATLLQKHIKSSELIAYEDLGTEAIRRLYVEDFPVIVANDAFGGDVFEEGRKKYAKIDV | soluble
MEQLTVQGLVRLMGAGANLVCVVTDNERRTEAIVGQATARLKGAGSPLVWTCTDGFTRDGTVVPGTVDPVAALDHALAHPAPLMTLFKDLSWFWSDNPYVIRKLKEFAVRARGKAAVVLARDESVPAELREDIVVLGQGLPGIGEITAFLGQLKEREPVLAAACAGHPGLMDHLVVAAQGLDLVDIERGVRALRNVPEAAGHEMVRSLFETKQAVIRRSGIMEFVANDTAPEQVGGMENLKAWMERREQAFGLESIASGAALPKGILMMGIAGCGKSLFVKAIAARWRLPLIRLDMAAVYDGSFGTPESSLRKAFRTAEAVAPCVLWIDEIESGISVQGFKAEGGPASRLLGSFLTWMQEKKAPVFVAATANAIEMLPAEIIRKGRFDEVFYVGLPDAGAREDIFRIHLERQKADSARFDVPLLAGSTKGFSGAEIEQAVLSAAFEARADRRTLTQQDVIVAVSRTVPLSVTMAEQIKKIEAWAFKRAVPAAGKF | not soluble
MSLARTNVMIAETFPEYLVDHNLIDCEVESLCNGMVRYEKRPARRRDGSVAEGLYNAWIIFNNPRQYNSYTTEMVKATILAFRRASVDREVNAVVFTGVGDKAFCTGGNTKEYAEYYAGNPQEYRQYMRLFNDMVSSILGCDRPVICRVNGMRIGGGQEIGMACDFSIAQDLAKFGQAGPKHGSAAIGGATDFLPIMIGCEQAMVSGTLCEPFSAHKAARLGIIADVVPALKVGGTFVANPTVVTDRFLDEYGRVVQGEFKTGADFKAGQARIKEGEVDLSLLDEKVEELCAKLLETFPECMTKSLEELRKPKLQAWNLNKENSRAWLALNMMNEARIGFRAFNEGTKETGREIDFVKLRRQLAEGTPWAEELIEEGHHHHHH | soluble
MGSDKIHHHHHHMAEKTFINRLQLTDFRNYGSASLRLDGRHVVLTGNNGSGKTNLMEAVSFLSPGRGLRRAVLSDVARAGAASGFSIFASLEGMAGDVELGTGSEVLDETAVRRLRINGASVRSVDELTDHLRVLWLTPAMDGLFTGSSSERRRFLDRLVLSIDPQHGRRASDFERAMRSRNKLLSEGRFDASWLAGIEQQMAALGIAMALARQEMMRLLAALIEQRREPETFPGADLMLSGFMDEHAGTAAIDLEDTYRDSLAGSRGRDAAAGRTLEGPHRSDLLVRHREKDMEAERCSTGEQKALLIGLILAHAELVATMTGFAPILLLDEIAAHLDEGRRAALFDRIDVLGGQAFMTGTDAQMFASLGDRAQFVTVDDGHLSL | not soluble
NKVNDESVEYFGQRNEFRQASDFMEERISGMTNISIAIKTNESQGIAAPDFLNTIGEFSSWLRDQPETDHVATLADVYKRLNKNMHGDDEAYYLLPQERELAAQYLLLYEMSLPYGLDLNNQINVDKSSIKMVLTVANLGSVELVDLENRIYQWFAEHAPQYQVVASSPSLMFAHIGETN | not soluble
MGSDKIHHHHHHMHLFKRAEMLNVIDTLATNYLKGKVRAVRLSVIALLSGGHILLEDIPGLGKTTLALALARALGLSFGRVQCTSDLLPSDITGLSILNRDENRFTFMPGPIFNNVVLMDEINRAMPKTQSALLEAMEERRVTVEGTTHPLPEPFLVIATQNPVEQVGTYPLPESQLDRFMVRSGIGYPPEAIEKAIIKGGSIRDGIRHLEPLVTVNDIIEAQRTVRESIYLSDKVVDYIHAIVAATRSHRAVTSGVSTRGAISMAETAKAHAYLEGRDYVIPEDVKAIAAPVGAHRLILGFDNENLDKGELLHAILATIPVPLA | not soluble
MGSDKIHHHHHHMSIPQQTDALDQAPSTAGCRVPYRVFTDRQYYDREQENIFKGNCWSFVGLEAEVPQAGDFKSTFVGETPVILTRDSDGSLHVVVNRCAHRGALVCREMRGNRASLECVYHQWAYDLKGNLIGVPFRRGLKGQGGMPGDFDMSQHNLRQLRTESVGGLVFASFSETVESCRDFLGPIVVEQIERIMCKPITVLGDQRQRIRGNWKLYAENTRDPYHASLLHLFHNTFGLYRSTQTGKALMDANKRHSLLYSIAASNDDAADKQAYGDSRTFDTEFKLQDMSLLKGRQEFADNVTLVILAVYPNLVLQQIQNTLAVRQTVTYGPDEFELVWTHFGYQDDDAEMQAIRLKQANLIGPAGLISMEDGEAVEIVQNAIVGEASATSYIAMGGGRAEDADHLVTEGAIIGFWDNYREMVGFEVEPT | not soluble
MGLTISSLFSRLFGKKQMRILMVGLDAAGKTTILYKLKLGEIVTTIPTIGFNVETVEYKNICFTVWDVGGQDKIRPLWRHYFQNTQGLIFVVDSNDRERIQEGAAVLEKMLLEDELQDAVLLLFANKQDLPNAMAISEMTDKLGLQSLRNRTWYVQATCATQGTGLYEGLDWLSHELSNVK | soluble
MMYALIVCNGSIIDYSFYRKFFDEADFIVCADGGALHLQRLGIKPDVLLGDFDSIESEHLEYYMKQNVEILKFPAEKDMTDTELAVNTAIDRGYKNIVIIGGTGTRLDHTLSNIFLLKLMLDRGVKGRIINEYNEMFLINDSTEIEAEDGCYLTLLPLTSKVEGITTEGLYYPLRGEAIEMGSTRGVSNCFVEKKARISITSGILIAIKTRE | not soluble
MSALPPVYSFPPLYTRQPNSLTRRQQISTWIDIISQYCKTKKIWYMSVDGTVINDNELDSGSTDNDDSKKISKNLFNNEDIQRSVSQVFIDEIWSQMTKEGKCLPIDQSGRRSSNTTTTRYFILWKSLDSWASLILQWFEDSGKLNQVITLYELSEGDETVNWEFHRMPESLLYYCLKPLCDRNRATMLKDENDKVIAIKVV | soluble
MNRTPSLHTKEKKGFIDMHTMWKGSISFGLVNIPIKLYAATEDKDIKLRSLHKEDHAPIKYEKVCTNCEKTLSPDEIVKGYEYVKGKYVVLTDEDLKSLKQEHEEKAVEIVDFVQLQEIDPIYFNRSYFVGPGDNGTKAYTLLREALRSTGKIGIANMTIRSKQQLAILRVYENCIVMESIHYPDEVRS | not soluble
MRDKTLKAILAHAEAEHPKECCGVVAQKSRVEKYFPCENLATNPTEQFHLDPTGYVEAEDWGTITAIVHSHPDATTQPSELDMAQCDNNELPWHIVSWPEGDLRTIQPRGDLPLVGREFVLGHTDCWGLIMSYFRQTHDIELKDYRVDRHWWESGTENFYMDNWYECGFREFSGPAQPGDLIIMQVSAPVANHGGILLEDGMLLHHPYGQLSQRVPYGGYWQERTMKVVRYEISQL | not soluble
QVQLVESGGGLVQPGGSLRLSCAASGFTFSSYAMSWFRQAPGKEREIVSAVSGSGGSTYYADSVRGRFTISRDNSKNTLYLQMNSLRAEDTAVYYCAREPRIPRPPSFDYWGQGTLVTVSS | soluble
MGSDKIHHHHHHMNAPAGGLSPALTPEAVADTTAMATETHILNPRFYTTDFDELDRVDVTPVRKDWDALIAEMKADPNKAHFKKTEAWDRIDWDGMDPALRVEFIDFLVSSCTAEFSGCVLYKEMKRRGSNPDIRELFNYMARDEARHAGFINDALREAGVAVNLGFLTKAKKYTYFRPKFIYYATYLSEKIGYARYITIYRHLEANPEHRFHPIFKWFKEWCNDEFRHGEAFALLMKTDPKLTDTTVNRLWIRFFLTAVYSTMWVRDHARPEFHKALGVDIDWYDQEVYRKTSEIARQIFPVELDIDHPRWKPALRRMNEAFLRIDRGTRRGGIAGRLEKALGGAQALAAFVSLYTIPVRTHTLPENVRLEPSY | not soluble
MAKEKIIVENEQSVEEKLAALSKLQNTLSEIDKIKTLRGELPLEVQDLEDEIAGMQTRLENFTAGSKQLNQAVTTEKEKISTAKTLLEKYKKQLDEVRNNREFDNLSKEIEFQELEIQLSEKKIKEYNVEIQQRKTDIATLKEVLEEHSEVLAEKRGELDTIIAETKQEEEKLREKAKKLEAKIEPRLLTAFKRIRKAAHNGLAVVPVERDACGGCFNKIPPQKQLDVKLRKKIIVCEYCGRIMVDPEMGA | not soluble
ARNKALKADGAFNGVEKEGLFKAMKHYGYEGLAVLVSERGHYSLKKAADVLGLGQEGLVAVKTDANNRIVVDDLKTKIAELKEQNIKPIAVIGVAGTTETGSVDPLSQIAQVCQEHNCHFHVDAAWGGATLMSNHYRHLLEGVELADSVTIDAHKQLYIPMGAGMVLFKDPDAMKSIEHHAQYILRKGSKDLGSHTLEGSRSGMAMLVYAAMHIISRPGYELLIDQSIEKARYFADLIKQQDDFELVSEPELCLLTYRYLPPLIREALDKAEGTQKEKLNELINQLTQFIQKRQRETGKSFVSRTRLNPDQWQRMNTIVFRVVLANPLTTRDILSSVLDEQREIAKQAPSLTAKIEEMASDILGA | not soluble
SLAVDQTRYIFRGDKDALTITVTNNDKERTFGGQAWVDNIVEKDTRPTFVVTPSFFKVKPNGQQTLRIIMASDHLPKDKESVYWLNLQDIPPALEGSGIAVALRTKLKLFYRPKALLEGRKGAEEGISLQSRPDGRTMLVNTTPYIFAIGSLLDGNGKKIATDNGTTQKLLMFMPGDEVQVKGNVVKVDSLNDYGELQTWTINKKKPAAPEAAKAEKADTAEQK | soluble
QVQLQQSGPELVKPGALVKISCKASGYTFTNYDINWVKQRPGQGLEWIGWIYPGDGSTMYNEKFKGKATLTADKSSSTAYMQLSSLTSENSSVYFCARLDGNYGGWFAYWGQGTSVTVSSAKTTPPSVYPLAPVCGDTTGSSVTLGCLVKGYFPEPVTVTWNSGSLSSGVHTFPAVLQSDLYTLSSSVTVPSSTWPSETVTCNVAHPASSTKVDKKIVP | soluble
MMTYEYILVRYGEMTTKGKNRSKFVSTLKDNVKFKLKKFPNIKIDATHDRMYIQLNGEDHEAVSERLKDVFGIHKFNLAMKVPSELEDIKKGALAAFLQVKGDVKTFKITVHRSYKHFPMRTMELLPEIGGHILENTEDITVDVHNPDVNVRVEIRSGYSYIMCDERMGAGGLPVGVGGKVMVLLSGGIDSPVAAYLTMKRGVSVEAVHFHSPPFTSERAKQKVIDLAQELTKYCKRVTLHLVPFTEVQKTINKEIPSSYSMTVMRRMMMRITERIAEERNALAITTGESLGQVASQTLDSMHTINEVTNYPVIRPLITMDKLEIIKIAEEIGTYDISIRPYEDCCTVFTPASPATKPKREKANRFEAKYDFTPLIDEAVANKETMVLQTVEVVAEEEKFEELF | not soluble
